In US7291601B1, “Arginine-rich anti-vascular endothelial growth factor peptides that inhibit growth and metastasis of human tumor cells by blocking angiogenesis” (Korea Greencross Corp., priority 1999, dated 2007):
Several values for one entry are separate records, joined by “and”; a condition that tells them apart may be missing. Equal entries are not always repeated. Entries after “also recorded” stand apart in the source; their conditions may differ. Where two headings read alike, the source gives them in different places.

Assays:
[1] = tested on: rabbit corneal domes; assay: Rabbit corneal dome angiogenesis induced by VEGF; format: in vivo; details: VEGF 10 ng with 1 μg peptide, 16 days after operation
Procedure: To confirm the test results obtained from egg CAM, an experiment was performed using rabbit corneal domes for in vivo angiogenesis testing. New Zealand male rabbits weighing 3 kg (SLC, Japan) were subjected to intramuscular ketamine anesthesia (44 mg/kg), followed by dissecting the corneal domes to a length of 3 mm by use of an operating knife (Bard-Parker—#11). […] 16 days after the operation, angiogenesis was obviously observed and photographs were taken of blood vessels newly formed in the corneal dome (Nikon, FS-2, Japan).

[2] = tested on: HM7 (human colon carcinoma cell line); assay: Subcutaneous HM7 tumor growth in athymic nude mice; format: in vivo; details: after 15 days of subcutaneous injection
Procedure: From the next day, a solution of each peptide in PBS (0.5 μg/100 μl/day) was subcutaneously injected to the mice for 15 days. Sizes of the tumors thus formed were periodically measured while tumor volumes were calculated according to the following formula: Tumor Size=0.5×(Diameter)^2×length

[3] = tested on: HM7 (human colon carcinoma cell line); assay: Liver metastasis of HM7 cells transplanted into the spleen of nude mice; format: in vivo
Excerpt: In order to conduct an experiment concerning the metastasis of cancer cells to the liver, cancerous cells were transplanted into the spleen. In this regard, after being anesthetized with diethyl ether, 4-week-old male mice (athymic nude mice, BALB/c/nu/nu, Charles River, Japan) underwent flank incision. […] Four weeks after the injection, the liver was excised from each mouse and measured for weight and the size and number of metastatic nodules formed. Each test group was composed of 6-7 mice. In a student's t-test, a p value less than 0.05 was regarded as being statistically significant. In the test using tetrazolium dye (cell titer 96 Non-radioactive Proliferation Assay Kit, Promega), each peptide was evaluated to have no influence on the growth of the cancer cells (5×10^3 cells/well), so that the possibility that the toxicity of the peptide themselves might inhibit the growth and metastasis of cancer cells could be excluded.

[4] = target: T1, VEGF (Homo sapiens, UniProt P15692); assay: Inhibition of 125I-labeled VEGF binding to its receptors on HUVEC; details: 10 μM peptide (FIG. 6)
T1 sequence (P15692 27-191 isoform P15692-4): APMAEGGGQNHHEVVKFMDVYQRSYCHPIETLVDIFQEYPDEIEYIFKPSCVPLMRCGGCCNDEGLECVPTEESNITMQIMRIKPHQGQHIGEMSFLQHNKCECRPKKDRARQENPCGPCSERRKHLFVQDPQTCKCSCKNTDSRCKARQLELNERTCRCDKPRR
Procedure: Then, the cells were transferred to a medium (Medium 199/25 mM HEPES, pH 7.4/0.1% bovine serum albumin) containing 0.2 ng of ^125I-labeled VEGF and various concentrations of peptides or combinatorial peptide libraries and reacted at 4° C. for 3 hours. The cells were washed twice with the same medium and once with PBS containing 0.1% albumin to remove the labeled VEGF which still remained uncombined. Thereafter, to quantify the labeled VEGF which bound to receptors present on the surface of the vascular endothelial cells, the cells were treated with 0.5 ml of a lysis solution (20 mM Tris-HCl, pH 7.4/1% TritonX-100) for 20 min, followed by measuring the resulting lysate for radioactivity with the aid of a γ-counter.
The sequence of each peptide was indirectly decided through the analysis of amino acid compositions and its concentration was determined, after which 12 peptides were assayed for antagonism toward VEGF binding at various concentrations (1, 4, 10, and 20 μM/sequence).

[5] = tested on: egg CAM (chorioallantoic membranes); assay: Egg CAM assay, angiogenesis induced by VEGF; format: in vivo
Procedure: Fertilized eggs (Pulmuwon, Korea) were incubated at 37° C. under a humidity of 90%. After three days of culturing, the eggs were deprived of about 2 ml of albumin. After four days, eggs were partially deprived of the sheath to make a window with a size of 2×2 cm.
After VEGF (10 ng/egg) was mixed with various amounts of peptides or other samples, 3 μl of each mixture was dropped onto ¼ fraction pieces of thermanox coverslips (Nunc) and dried. The pieces were placed on CAM of 9-day embryonic eggs.
Two days later, the samples were independently observed under anatomical microscopes by two different persons to determine whether new blood vessels are induced by the dropped samples or not. In this regard, the experiment was repeated at least three times using 10 or more eggs per sample and the results are given in Table 5, below.

[6] = tested on: HT1080 (human fibrosarcoma); assay: Egg CAM assay, angiogenesis induced by VEGF-secreting cancer cells; format: in vivo; details: egg CAM, 10^5 HT1080 cells/egg with 0.1 μg peptide; for Angiogenic activity(%): (standard deviation)
Procedure: An experiment using egg CAM was carried out to confirm the inhibitory activity of the screened peptides against the angiogenesis induced by cancer cells, which secrete VEGF. Fertilized eggs were deprived of albumin and windows were formed on the eggs as in above. 10^5 cells of HT1080 (human fibrosarcoma) were mixed with 7.5 μg of Type I collagen (rat tail, Beckton Dickinson, USA) within a volume of 5 μl and dropped onto ¼ fraction pieces of Thermanox coverslips to give collagen sponges. After being covered with the collagen sponges, 10-day embryonic egg CAM was incubated at 37° C. for 3 days. Blood vessels induced by the cancer cells were observed and photographed as in above (see Table 6 and FIG. 12).

[7] = target: VEGF receptors present on the surface of HUVEC (human umbilical vein endothelial cells) (human); assay: Scatchard analysis of 125I-VEGF165 binding to HUVEC; the kind of receptor at about 2,000 per cell
[8] = target: VEGF receptors present on the surface of HUVEC; assay: Binding of 125I-labeled VEGF165 to HUVEC, Scatchard analysis; parameters: species or system human
Procedure: First, HUVEC (human umbilical vein endothelial cells) (Clonetics) were placed on gelatin-coated 100 mm dishes (Falcon) containing a vascular endothelial cell culture medium (Medium 199+20% BCS, 5 μg/ml of heparin, 6 μg/ml of endothelial cell growth supplement, 5 ng/ml of basic fibroblast growth factor) and cultured at 37° C. in a CO2 incubator for animal cell culture. After a certain period of time, the cells were treated with trypsin/EDTA. After centrifugation, the cells harvested were suspended in a fresh, vascular endothelial cells culture medium and aliquoted at a density of 5×10^4 cell/well to a 24 well plate (Costar Co.). […] Thereafter, to quantitatively determine the amount of the labeled VEGF which bound to receptors present on the surface of the vascular endothelial cells, the cells were treated with 0.5 ml of a lysis solution (20 mM Tris-HCl, pH 7.4/1% TritonX-100) for 20 min, followed by measuring the resulting lysate for radioactivity with the aid of a γ-counter. As for the non-specific binding, it was determined from a cell group cultured in the presence of a mixture of the labeled VEGF and non-labeled VEGF in a molar ratio of 1:100. […]
The measurement results are shown in FIGS. 1a and 1b in which radioactivity is plotted versus time and concentration, respectively.

[9] = target: T2, ^125I-labeled VEGF165, P15692; assay: inhibition of 125I-VEGF binding to its receptors on HUVEC, gamma counting
T2 chain: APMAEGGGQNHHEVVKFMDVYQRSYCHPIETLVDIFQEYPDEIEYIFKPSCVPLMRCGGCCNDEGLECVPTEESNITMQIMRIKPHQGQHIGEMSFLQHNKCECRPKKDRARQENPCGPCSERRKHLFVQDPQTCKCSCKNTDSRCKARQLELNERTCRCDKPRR

[10] = target: T3, VEGF (R&D systems), P15692; assay: cell-based or functional assay
T3 chain: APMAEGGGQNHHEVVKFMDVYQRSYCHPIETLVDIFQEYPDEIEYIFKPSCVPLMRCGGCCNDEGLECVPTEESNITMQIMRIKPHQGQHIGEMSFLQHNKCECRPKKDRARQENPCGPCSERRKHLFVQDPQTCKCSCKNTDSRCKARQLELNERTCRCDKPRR

[11] = target: T4, VEGF secreted from HT1080 human fibrosarcoma cells (human), P15692; assay: cell-based or functional assay
T4 chain: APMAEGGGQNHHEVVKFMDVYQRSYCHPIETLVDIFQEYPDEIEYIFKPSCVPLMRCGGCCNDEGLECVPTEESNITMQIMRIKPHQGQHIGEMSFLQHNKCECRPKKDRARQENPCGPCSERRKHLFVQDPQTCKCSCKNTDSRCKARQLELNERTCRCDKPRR

[12] = target: T2, ^125I-labeled VEGF165, P15692; assay: 125I-VEGF on plate-fixed peptide, competition; KD computed from the IC50
[13] = VEGF 10 ng/egg alone or with 1 μg sample
[14] = VEGF 10 ng/egg alone or with 1 μg sample, (standard deviation)

EEFDDA: control peptide of an amino acid sequence EEFDDA [reference compound]
VEGF-induced angiogenesis in the rabbit corneal dome [1]: had no influence on the VEGF-induced angiogenesis; also recorded: obvious angiogenesis | effect on tumor size / growth of human colon carcinoma cells in mice [2]: no effects | metastasis of cancer cells versus tumor injected alone ([3]; mouse, in vivo): No difference in metastasis

KKKKKK: control peptide consisting of only lysine [reference compound]
inhibition between labeled VEGF and its receptors [4]: no inhibition was observed | Angiogenic activity eggs/total eggs [5, 13]: 8/25 | Angiogenic activity eggs/total eggs [6]: 14/22 | Angiogenic activity(%) [6]: 59.0(1.4) % | Angiogenic activity(%) ([6]; listed as control peptide): 59% | metastasis, % of the control group to which only PBS was injected ([3]; weak inhibitory activity, measure not specified): about 80%

VEGF
Angiogenic activity eggs/total eggs [5, 13]: 9/27 | Angiogenic activity(%) [5, 14]: 33.6% and 33.6(3.8) %

^125I-labeled VEGF165 (from UniProt P15692 27-191) (ligand)
Kd [7]: 3 pM

^125I-labeled VEGF: radioactive iodine-labeled VEGF165 used as ligand
Kd ([8]; receptor density about 2,000 per cell, read-out: dissociation constant (KD), first kind of receptor): 0.003 nM | Kd ([8]; receptor density about 6,000 per cell, read-out: dissociation constant (KD), other kind of receptor): 0.05 nM

protamine [reference compound]
Angiogenic activity eggs/total eggs [5, 13]: 5/26 | Angiogenic activity(%) [5, 14]: 18.8(4.1) % and 18.4(4.1) % | Angiogenic activity(%) ([5]; VEGF with protamine 50 μg/egg as stated in text): about 18.8%

RKRRKR (modifications not checked) [Table 4 peptide 4 (RKRRKR)]
IC50 [9]: 8.5 µM

RKKRRR (modifications not checked) [Table 4 peptide 7 (RKKRRR)]
IC50 [9]: 6.5 µM

H-RRRRRR-NH2 [peptide of sequence 3 (SEQ ID NO: 3) (NH2-Arg-Arg-Arg-Arg-Arg-Arg-CONH2)]
Angiogenic activity(%), egg CAM, VEGF 10 ng + peptide 1 µg (VEGF alone 33.6, water 10.8) [10]: 15.6% | Angiogenic activity(%), egg CAM, HT1080 cancer cells + peptide 0.1 µg (cancer cell alone 76.0, no treatment 18.5) [11]: 41% | IC50 [9]: 3.8 µM | Kd [12]: 22 µM

H-RKKRKR-NH2 [peptide of sequence 2 (SEQ ID NO: 2) (NH2-Arg-Lys-Lys-Arg-Lys-Arg-CONH2)]
Angiogenic activity(%), egg CAM, VEGF 10 ng + peptide 1 µg (VEGF alone 33.6, water 10.8) [10]: 15.6% | Angiogenic activity(%), egg CAM, HT1080 cancer cells + peptide 0.1 µg (cancer cell alone 76.0, no treatment 18.5) [11]: 43% | IC50 [9]: 3.4 µM | Kd [12]: 2 µM

H-RRKRRR-NH2 [peptide of sequence 1 (SEQ ID NO: 1) (NH2-Arg-Arg-Lys-Arg-Arg-Arg-CONH2)]
Angiogenic activity(%), egg CAM, VEGF 10 ng + peptide 1 µg (VEGF alone 33.6, water 10.8) [10]: 15.6% | Angiogenic activity(%), egg CAM, HT1080 cancer cells + peptide 0.1 µg (cancer cell alone 76.0, no treatment 18.5) [11]: 36% | IC50 [9]: 2 µM | Kd [12]: 5 µM

RRKRKR (modifications not checked) [Table 4 peptide 2 (RRKRKR)]
IC50 [9]: 6 µM

RKRRRR (modifications not checked) [Table 4 peptide 10 (RKRRRR)]
IC50 [9]: 7.8 µM
